# From IntAct's records for PubMed 35512704
# B1: Mothers against decapentaplegic homolog 4 (Homo sapiens), Q13485 (parent)
# chain: MDNMSITNTPTSNDACLSIVHSLMCHRQGGESETFAKRAIESLVKKLKEKKDELDSLITAITTNGAHPSKCVTIQRTLDGRLQVAGRKGFPHVIYARLWRWPDLHKNELKHVKYCQYAFDLKCDSVCVNPYHYERVVSPGIDLSGLTLQSNAPSSMMVKDEYVHDFEGQPSLSTEGHSIQTIQHPPSNRASTETYSTPALLAPSESNATSTANFPNIPVASTSQPASILGGSHSEGLLQIASGPQPGQQQNGFTGQPATYHHNSTTTWTGSRTAPYTPNLPHHQNGHLQHHPPMPPHPGHYWPVHNELAFQPPISNHPAPEYWCSIAYFEMDVQVGETFKVPSSCPIVTVDGYVDPSGGDRFCLGQLSNVHRTEAIERARLHIGKGVQLECKGEGDVWVRCLSDHAVFVQSYYLDREAGRAPGDAVHKIYPSAYIKVFDLRQCHRQMQQQAATAQAAAAAQAAAVAGNIPGPGSVGGIAPAISLSAAAGIGVDDLRRLCILRMSFVKGWGPDYPRQSIKETPCWIEIHLHRALQLLDEVLHTMPIADPQPLD
# Variants of: B1
# Settings: with keap1_human KEAP1, Q14145
row,Variant,effect of a mutation on the interaction
1,D351H,with no effect

# Variants of: B1
# Settings: with klf4_human KLF4, O43474
row,Variant,effect of a mutation on the interaction
1,D351H,with no effect

# Variants of: B1
# Settings: with maga6_human MAGEA6, P43360
row,Variant,effect of a mutation on the interaction
1,D351H,with no effect

# Variants of: B1
# Settings: with mp2k7_human MAP2K7, O14733
row,Variant,effect of a mutation on the interaction
1,D351H,with no effect

# Variants of: B1
# Settings: with m3k1_human MAP3K1, Q13233
row,Variant,effect of a mutation on the interaction
1,D351H,with no effect

# Variants of: B1
# Settings: with mk10_human MAPK10, P53779
row,Variant,effect of a mutation on the interaction
1,D351H,with no effect

# Variants of: B1
# Settings: with mk14_human MAPK14, Q16539
row,Variant,effect of a mutation on the interaction
1,D351H,with no effect

# Variants of: B1
# Settings: with mk03_human MAPK3, P27361
row,Variant,effect of a mutation on the interaction
1,D351H,with no effect

# Variants of: B1
# Settings: with mk04_human MAPK4, P31152
row,Variant,effect of a mutation on the interaction
1,D351H,with no effect

# Variants of: B1
# Settings: with mk06_human MAPK6, Q16659
row,Variant,effect of a mutation on the interaction
1,D351H,with no effect

# Variants of: B1
# Settings: with mcl1_human MCL1, Q07820
row,Variant,effect of a mutation on the interaction
1,D351H,with no effect

# Variants of: B1
# Settings: with mitf_human MITF
row,Variant,effect of a mutation on the interaction
1,D351H,with no effect

# Variants of: B1
# Settings: with myc_human MYC
row,Variant,effect of a mutation on the interaction
1,D351H,with no effect

# Variants of: B1
# Settings: with nck2_human NCK2, O43639
row,Variant,effect of a mutation on the interaction
1,D351H,with no effect

# Variants of: B1
# Settings: with nf1_human NF1, P21359
row,Variant,effect of a mutation on the interaction
1,D351H,with no effect

# Variants of: B1
# Settings: with merl_human NF2, P35240
row,Variant,effect of a mutation on the interaction
1,D351H,with no effect

# Variants of: B1
# Settings: with nfic_human NFIC
row,Variant,effect of a mutation on the interaction
1,D351H,with no effect

# Variants of: B1
# Settings: with notc2_human NOTCH2, Q04721
row,Variant,effect of a mutation on the interaction
1,D351H,with no effect

# Variants of: B1
# Settings: with ntrk2_human NTRK2, Q16620
row,Variant,effect of a mutation on the interaction
1,D351H,with no effect

# Variants of: B1
# Settings: with ntrk3_human NTRK3, Q16288
row,Variant,effect of a mutation on the interaction
1,D351H,with no effect

# Variants of: B1
# Settings: with pak3_human PAK3, O75914
row,Variant,effect of a mutation on the interaction
1,D351H,with no effect

# Variants of: B1
# Settings: with prkn_human PRKN
row,Variant,effect of a mutation on the interaction
1,D351H,with no effect

# Variants of: B1
# Settings: with pax5_human PAX5, Q02548
row,Variant,effect of a mutation on the interaction
1,D351H,with no effect

# Variants of: B1
# Settings: with pax9_human PAX9, P55771
row,Variant,effect of a mutation on the interaction
1,D351H,with no effect

# Variants of: B1
# Settings: with pcbp1_human PCBP1, Q15365
row,Variant,effect of a mutation on the interaction
1,D351H,with no effect

# Variants of: B1
# Settings: with pgfra_human PDGFRA
row,Variant,effect of a mutation on the interaction
1,D351H,with no effect

# Variants of: B1
# Settings: with pgfrb_human PDGFRB
row,Variant,effect of a mutation on the interaction
1,D351H,with no effect

# Variants of: B1
# Settings: with pdk1_human PDK1, Q15118
row,Variant,effect of a mutation on the interaction
1,D351H,with no effect

# Variants of: B1
# Settings: with PIK3C2B
row,Variant,effect of a mutation on the interaction
1,D351H,with no effect

# Variants of: B1
# Settings: with pk3c3_human PIK3C3, Q8NEB9
row,Variant,effect of a mutation on the interaction
1,D351H,with no effect

# Variants of: B1
# Settings: with pk3ca_human PIK3CA
row,Variant,effect of a mutation on the interaction
1,D351H,with no effect

# Variants of: B1
# Settings: with pk3cb_human PIK3CB
row,Variant,effect of a mutation on the interaction
1,D351H,with no effect

# Variants of: B1
# Settings: with pk3cg_human PIK3CG
row,Variant,effect of a mutation on the interaction
1,D351H,with no effect

# Variants of: B1
# Settings: with p85a_human PIK3R1, P27986
row,Variant,effect of a mutation on the interaction
1,D351H,with no effect

# Variants of: B1
# Settings: with p85b_human PIK3R2, O00459
row,Variant,effect of a mutation on the interaction
1,D351H,with no effect

# Variants of: B1
# Settings: with dpod1_human POLD1, P28340
row,Variant,effect of a mutation on the interaction
1,D351H,with no effect

# Variants of: B1
# Settings: with dpoe1_human POLE
row,Variant,effect of a mutation on the interaction
1,D351H,with no effect

# Variants of: B1
# Settings: with lipa1_human PPFIA1, Q13136
row,Variant,effect of a mutation on the interaction
1,D351H,with no effect

# Variants of: B1
# Settings: with 2aaa_human PPP2R1A
row,Variant,effect of a mutation on the interaction
1,D351H,with no effect

# Variants of: B1
# Settings: with prdm1_human PRDM1, O75626
row,Variant,effect of a mutation on the interaction
1,D351H,with no effect

# Variants of: B1
# Settings: with aapk2_human PRKAA2, P54646
row,Variant,effect of a mutation on the interaction
1,D351H,with no effect

# Variants of: B1
# Settings: with prss8_human PRSS8, Q16651
row,Variant,effect of a mutation on the interaction
1,D351H,with no effect

# Variants of: B1
# Settings: with ptk6_human PTK6, Q13882
row,Variant,effect of a mutation on the interaction
1,D351H,with no effect

# Variants of: B1
# Settings: with tf65_human RELA
row,Variant,effect of a mutation on the interaction
1,D351H,with no effect
